B1: angiopoietin 1 (protein, UniProt O08538 20-498, looked up)
Angiopoietin-1: SNQRRNPENGGRRYNRIQHGQCAYTFILPEHDGNCRESATEQYNTNALQRDAPHVEPDFSSQKLQHLEHVMENYTQWLQKLENYIVENMKSEMAQIQQNAVQNHTATMLEIGTSLLSQTAEQTRKLTDVETQVLNQTSRLEIQLLENSLSTYKLEKQLLQQTNEILKIHEKNSLLEHKILEMEGKHKEELDTLKEEKENLQGLVSRQTFIIQELEKQLSRATNNNSILQKQQLELMDTVHNLISLCTKEGVLLKGGKREEEKPFRDCADVYQAGFNKSGIYTIYFNNMPEPKKVFCNMDVNGGGWTVIQHREDGSLDFQRGWKEYKMGFGNPSGEYWLGNEFIFAITSQRQYMLRIELMDWEGNRAYSQYDRFHIGNEKQNYRLYLKGHTGTAGKQSSLILHGADFSTKDADNDNCMCKCALMLTGGWWFDACGPSNLNGMFYTAGQNHGKLNGIKWHYFKGPSYSLRSTTMMIRPLDF
modifications: adenovirus-expressed
notes: mouse-derived Ang-1 gene expressed from AdenoX adenovirus vector in vivo

Experiments:
Tie2 = target: T1, Tie2 (Homo sapiens, UniProt Q02763); assay: Western blotting of lymphatic endothelial cells (Tie2 phosphorylation); format: cell-based; conditions: Western blot of Tie2 and phosphorylated Tie2, DMSO control, compared with Ang-1
T1 construct: endogenous in cells; host or cells: primary human lymphatic endothelial cells from infant foreskin
T1 sequence (Q02763 23-1124): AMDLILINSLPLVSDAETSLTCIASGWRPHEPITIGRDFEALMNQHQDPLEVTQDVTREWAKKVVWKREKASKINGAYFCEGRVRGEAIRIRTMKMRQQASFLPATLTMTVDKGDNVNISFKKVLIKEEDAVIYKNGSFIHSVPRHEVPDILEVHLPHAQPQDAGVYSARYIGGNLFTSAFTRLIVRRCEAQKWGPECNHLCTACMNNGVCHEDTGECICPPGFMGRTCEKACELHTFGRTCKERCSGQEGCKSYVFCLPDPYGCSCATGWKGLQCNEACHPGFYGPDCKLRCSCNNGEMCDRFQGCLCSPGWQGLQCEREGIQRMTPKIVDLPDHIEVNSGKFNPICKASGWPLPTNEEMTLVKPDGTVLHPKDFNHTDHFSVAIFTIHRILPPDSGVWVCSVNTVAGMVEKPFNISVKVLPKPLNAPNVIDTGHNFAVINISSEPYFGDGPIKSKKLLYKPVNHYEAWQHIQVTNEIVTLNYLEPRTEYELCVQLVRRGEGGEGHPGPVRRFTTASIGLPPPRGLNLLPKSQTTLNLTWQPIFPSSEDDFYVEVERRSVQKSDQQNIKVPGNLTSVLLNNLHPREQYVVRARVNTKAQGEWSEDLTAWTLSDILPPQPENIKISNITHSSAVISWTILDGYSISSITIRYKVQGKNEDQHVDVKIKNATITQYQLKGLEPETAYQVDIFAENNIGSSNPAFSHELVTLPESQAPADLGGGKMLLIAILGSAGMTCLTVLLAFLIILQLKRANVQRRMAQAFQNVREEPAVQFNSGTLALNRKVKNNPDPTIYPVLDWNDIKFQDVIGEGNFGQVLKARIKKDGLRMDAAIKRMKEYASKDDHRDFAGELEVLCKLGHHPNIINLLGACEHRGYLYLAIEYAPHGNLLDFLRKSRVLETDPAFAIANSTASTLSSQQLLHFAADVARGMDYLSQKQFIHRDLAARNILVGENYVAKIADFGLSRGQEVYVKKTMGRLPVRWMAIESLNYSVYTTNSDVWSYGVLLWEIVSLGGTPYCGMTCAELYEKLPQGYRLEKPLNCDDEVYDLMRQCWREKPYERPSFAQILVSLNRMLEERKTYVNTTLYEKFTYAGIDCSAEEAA
Description: Lymphatic endothelial cells were isolated from human infant foreskin as CD31-positive, CD34-negative, CD45-negative cells (Non-Patent Document 6). The lymphatic endothelial cells were cultured in EBM-2 (Cambrex, Verviers, Belgium) supplemented with addition factors, and protein was extracted with Phosphosafe Extraction Reagent (Novagen, Madison, Wis.) in the presence of various drugs (Ang-1, cinnamon bark extract, Siberian Ginseng extract and syringaresinol). Cells supplemented with DMSO were prepared as a control.
Furthermore, the cinnamon bark extract and syringaresinol were prepared in the manner indicated below. The Siberian Ginseng extract (Ask Intercity) was obtained by extracting Siberian Ginseng root with 30% ethanol. This extract was confirmed to contain 1.01% by weight syringaresinol by HPLC. This extract was then dissolved with DMSO for use as each test sample. The total amount of protein was determined with the RC DC Protein Assay Kit (BIO-RAD, Hercules, Calif.), and detected by Western blotting in the manner described below. An equal amount of total protein was subjected to SDS-PAGE using 7.5% acrylamide gel (NPU-7.5L, ATTO, Japan), and expression of Tie2 and phosphorylated Tie2 protein was confirmed by staining with an ECL Kit using […] (Santa Cruz Biotechnology, Santa Cruz, Calif.).

lymphatic vessels = assay: Lymph drainage assay (colloidal carbon injected into the auricle of mice infected with Ang-1 adenovirus); format: in vivo, mouse
Description: The auricles of 8-week-old mice were infected with adenovirus (1×10^9 ifu/mouse), in which mouse-derived angiopoietin-1 (Ang-1) gene was incorporated into an AdenoX vector, with a Hamilton syringe (Hamilton, Reno. NV). Mice were also infected with adenovirus incorporating only AdenoX vector as a control. 1 μl of colloidal carbon solution (Kamei Co., Ltd., Japan) was injected into the tip of the auricle with a Hamilton syringe followed by analysis of time-based changes in the flow of lymph. […] In addition, a visual assessment of changes in lymphatic vessel recovery function was also carried out, and comparisons were made by scoring to one of levels (5: all ink remaining in lymphatic vessels, 1: all ink recovered and no longer present in lymphatic vessels), the results of which are shown in FIG. 1.
In addition, after sacrificing the animals by anesthesia, the ears of the animals were simultaneously collected and crushed in liquid nitrogen followed by extraction of protein with Phosphosafe Extraction Reagent (Novagen, Madison, Wis.). The total amount of protein was determined with the RC DC Protein Assay Kit (BIO-RAD, Hercules, Calif.) and detected by Western blotting in the manner described below. […]

Row | Molecule | Tie2 phosphorylation (activation) (Tie2) | lymphatic vessel recovery function (time-based changes in the flow of lymph) (lymphatic vessels; ears of mice highly expressing Ang1 via adenovirus, 1 μl colloidal carbon into tip of auricle, vs AdenoX vector control, data not shown) | lymphatic vessel recovery function, visual assessment score (5: all ink remaining, 1: all ink recovered) (lymphatic vessels; mouse auricle, Ang-1 adenovirus vs AdenoX vector control, FIG. 1)
1 | COc1cc(C2OCC3C(c4cc(OC)c(O)c(OC)c4)OCC23)cc(OC)c1O (stereo not drawn) [syringaresinol, Syringaresinol] | confirmed to activate Tie2 in the same manner as Ang-1 |  | 
2 | B1 |  | promoted | remarkable promotion of lymphatic vessel recovery function

From patent US8367124B2, “Lymphatic vessel stabilizer” (Shiseido Company, Ltd., priority 2008, dated 2013)
